Legend:
[1] = molecular target: SSTR2 Q102^2.63A (human) (UniProt P30874)
[2] = molecular target: SSTR2 Y205^5.35A (human) (UniProt P30874)
[3] = molecular target: SSTR2 I195^45.52A (human) (UniProt P30874)
[4] = molecular target: human full-length SSTR2 wild-type with SmBiT at the C-terminus (human) (UniProt P30874)
[5] = molecular target: SSTR2 F208^5.38A (human) (UniProt P30874)
[6] = molecular target: SSTR2 I284^ECL3A (human) (UniProt P30874)
[7] = molecular target: SSTR2 S285^ECL3A (human) (UniProt P30874)
[8] = molecular target: SSTR2 L99^2.60A (human) (UniProt P30874)
[9] = molecular target: SSTR2 K291^7.32A (human) (UniProt P30874)
[10] = molecular target: SSTR2 T194^45.51A (human) (UniProt P30874)
[11] = molecular target: SSTR2 N276^6.55A (human) (UniProt P30874)
[12] = molecular target: SSTR2 F272^6.51A (human) (UniProt P30874)
[13] = molecular target: SSTR2 T287^ECL3A (human) (UniProt P30874)
[14] = molecular target: SSTR2 F127^3.37A (human) (UniProt P30874)
[15] = molecular target: SSTR2 Y302^7.43A (human) (UniProt P30874)
[16] = molecular target: SSTR2 S279^6.58A (human) (UniProt P30874)
[17] = molecular target: SSTR2 W188^ECL3A (human) (UniProt P30874)
[18] = molecular target: SSTR2 F294^7.35A (human) (UniProt P30874)
[19] = molecular target: SSTR2 P286^ECL3A (human) (UniProt P30874)
[20] = molecular target: human full-length SSTR2 wild-type (human) (UniProt P30874)
[21] = molecular target: human full-length SSTR3 H192^45.51T (human) (UniProt P32745)
[22] = molecular target: human full-length SSTR3 wild-type (human) (UniProt P32745)
[23] = molecular target: human full-length SSTR2 T194^45.51H (human) (UniProt P30874)
[24] = molecular target: human full-length SSTR2 V103^2.64N (human) (UniProt P30874)
[25] = molecular target: human full-length SSTR3 N101^2.64V (human) (UniProt P32745)
[26] = molecular target: human full-length SSTR2 wild-type with SmBiT at the C-terminus (human) (UniProt P30874); remark: listed apart in the source
[27] = molecular target: SSTR2 T194^45.51H (human) (UniProt P30874)
[28] = molecular target: human full-length SSTR3 wild-type (human) (UniProt P32745); remark: listed apart in the source
[29] = molecular target: SSTR3 H192^45.51T (human) (UniProt P32745)
[30] = molecular target: SSTR3 N101^2.64V (human) (UniProt P32745)
[31] = molecular target: SSTR2 V103^2.64N (human) (UniProt P30874)
Sequence of SSTR2 V103^2.64N (human) (P30874 whole entry V103N): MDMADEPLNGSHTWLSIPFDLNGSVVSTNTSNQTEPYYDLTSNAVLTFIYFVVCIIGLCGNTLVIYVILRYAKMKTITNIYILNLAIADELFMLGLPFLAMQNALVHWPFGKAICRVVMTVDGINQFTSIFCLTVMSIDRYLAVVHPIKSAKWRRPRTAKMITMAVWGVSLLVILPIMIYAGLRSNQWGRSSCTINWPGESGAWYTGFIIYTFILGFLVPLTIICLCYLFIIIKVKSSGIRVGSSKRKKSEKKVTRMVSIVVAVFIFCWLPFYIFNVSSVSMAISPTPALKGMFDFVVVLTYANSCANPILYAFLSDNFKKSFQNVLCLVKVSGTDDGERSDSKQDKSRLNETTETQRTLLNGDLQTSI

Sequence of human full-length SSTR3 wild-type (human) (P32745 whole entry): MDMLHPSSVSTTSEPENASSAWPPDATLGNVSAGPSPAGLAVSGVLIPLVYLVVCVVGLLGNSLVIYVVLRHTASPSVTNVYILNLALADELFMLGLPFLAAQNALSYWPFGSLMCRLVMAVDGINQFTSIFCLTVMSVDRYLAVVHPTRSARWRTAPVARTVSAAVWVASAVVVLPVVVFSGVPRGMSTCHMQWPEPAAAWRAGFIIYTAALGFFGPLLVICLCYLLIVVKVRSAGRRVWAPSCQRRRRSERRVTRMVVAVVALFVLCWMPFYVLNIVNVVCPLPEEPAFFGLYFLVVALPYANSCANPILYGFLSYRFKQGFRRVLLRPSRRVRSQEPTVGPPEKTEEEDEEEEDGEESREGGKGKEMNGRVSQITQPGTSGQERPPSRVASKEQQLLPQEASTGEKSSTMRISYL
Sequence of human full-length SSTR2 T194^45.51H (human) (P30874 whole entry T194H): as the sequence (P30874 whole entry V103N) above, with N103V, T194H counted along it
Sequence of human full-length SSTR2 V103^2.64N (human) (P30874 whole entry V103N): as the sequence (P30874 whole entry V103N) above
Sequence of human full-length SSTR3 H192^45.51T (human) (P32745 whole entry H192T): as the sequence (P32745 whole entry) above, with H192T counted along it
Sequence of human full-length SSTR3 N101^2.64V (human) (P32745 whole entry): as the sequence (P32745 whole entry) above
Sequence of human full-length SSTR2 wild-type with SmBiT at the C-terminus (human) (P30874 whole entry): as the sequence (P30874 whole entry V103N) above, with N103V counted along it
Sequence of human full-length SSTR2 wild-type (human) (P30874 whole entry): as the sequence (P30874 whole entry V103N) above, with N103V counted along it
Sequence of SSTR2 I284^ECL3A (human) (P30874 whole entry I284A): as the sequence (P30874 whole entry V103N) above, with N103V, I284A counted along it
Sequence of SSTR2 P286^ECL3A (human) (P30874 whole entry P286A): as the sequence (P30874 whole entry V103N) above, with N103V, P286A counted along it
Sequence of SSTR2 K291^7.32A (human) (P30874 whole entry K291A): as the sequence (P30874 whole entry V103N) above, with N103V, K291A counted along it
Sequence of SSTR2 S285^ECL3A (human) (P30874 whole entry S285A): as the sequence (P30874 whole entry V103N) above, with N103V, S285A counted along it
Sequence of SSTR2 T194^45.51H (human) (P30874 whole entry T194H): as the sequence (P30874 whole entry V103N) above, with N103V, T194H counted along it
Sequence of SSTR2 L99^2.60A (human) (P30874 whole entry L99A): as the sequence (P30874 whole entry V103N) above, with L99A, N103V counted along it
Sequence of SSTR2 F208^5.38A (human) (P30874 whole entry F208A): as the sequence (P30874 whole entry V103N) above, with N103V, F208A counted along it
Sequence of SSTR2 N276^6.55A (human) (P30874 whole entry N276A): as the sequence (P30874 whole entry V103N) above, with N103V, N276A counted along it
Sequence of SSTR2 Y205^5.35A (human) (P30874 whole entry Y205A): as the sequence (P30874 whole entry V103N) above, with N103V, Y205A counted along it
Sequence of SSTR2 F294^7.35A (human) (P30874 whole entry F294A): as the sequence (P30874 whole entry V103N) above, with N103V, F294A counted along it
Sequence of SSTR2 F272^6.51A (human) (P30874 whole entry F272A): as the sequence (P30874 whole entry V103N) above, with N103V, F272A counted along it
Sequence of SSTR2 T287^ECL3A (human) (P30874 whole entry T287A): as the sequence (P30874 whole entry V103N) above, with N103V, T287A counted along it
Sequence of SSTR2 F127^3.37A (human) (P30874 whole entry F127A): as the sequence (P30874 whole entry V103N) above, with N103V, F127A counted along it
Sequence of SSTR3 H192^45.51T (human) (P32745 whole entry H192T): as the sequence (P32745 whole entry) above, with H192T counted along it
Sequence of SSTR2 T194^45.51A (human) (P30874 whole entry T194A): as the sequence (P30874 whole entry V103N) above, with N103V, T194A counted along it
Sequence of SSTR2 Q102^2.63A (human) (P30874 whole entry Q102A): as the sequence (P30874 whole entry V103N) above, with Q102A, N103V counted along it
Sequence of SSTR3 N101^2.64V (human) (P32745 whole entry): as the sequence (P32745 whole entry) above
Sequence of SSTR2 S279^6.58A (human) (P30874 whole entry S279A): as the sequence (P30874 whole entry V103N) above, with N103V, S279A counted along it
Sequence of SSTR2 Y302^7.43A (human) (P30874 whole entry Y302A): as the sequence (P30874 whole entry V103N) above, with N103V, Y302A counted along it
Sequence of SSTR2 W188^ECL3A (human) (P30874 whole entry W188A): as the sequence (P30874 whole entry V103N) above, with N103V, W188A counted along it
Sequence of SSTR2 I195^45.52A (human) (P30874 whole entry I195A): as the sequence (P30874 whole entry V103N) above, with N103V, I195A counted along it

EC50 of octreotide-induced cAMP inhibition (Gi signaling, GloSensor, HEK293 cells expressing the receptor) [1]: 66.8 nM
EC50 of octreotide-induced cAMP inhibition (Gi signaling, GloSensor, HEK293 cells expressing the receptor) [2]: 0.92 nM
EC50 of octreotide-induced cAMP inhibition (Gi signaling, GloSensor, HEK293 cells expressing the receptor) [3]: 6.58 nM
EC50 of octreotide-induced cAMP inhibition (Gi signaling, GloSensor, HEK293 cells expressing the receptor) [4]: 0.46 nM
EC50 of octreotide-induced cAMP inhibition (Gi signaling, GloSensor, HEK293 cells expressing the receptor) [5]: 6.42 nM
EC50 of octreotide-induced cAMP inhibition (Gi signaling, GloSensor, HEK293 cells expressing the receptor) [6]: 1.91 nM
EC50 of octreotide-induced cAMP inhibition (Gi signaling, GloSensor, HEK293 cells expressing the receptor) [7]: 0.69 nM
EC50 of octreotide-induced cAMP inhibition (Gi signaling, GloSensor, HEK293 cells expressing the receptor) [8]: 1.25 nM
EC50 of octreotide-induced cAMP inhibition (Gi signaling, GloSensor, HEK293 cells expressing the receptor) [9]: 5.46 nM
EC50 of octreotide-induced cAMP inhibition (Gi signaling, GloSensor, HEK293 cells expressing the receptor) [10]: 48.5 nM
EC50 of octreotide-induced cAMP inhibition (Gi signaling, GloSensor, HEK293 cells expressing the receptor) [11]: 35.1 nM
EC50 of octreotide-induced cAMP inhibition (Gi signaling, GloSensor, HEK293 cells expressing the receptor) [12]: 322 nM
EC50 of octreotide-induced cAMP inhibition (Gi signaling, GloSensor, HEK293 cells expressing the receptor) [13]: 0.6 nM
EC50 of octreotide-induced cAMP inhibition (Gi signaling, GloSensor, HEK293 cells expressing the receptor) [14]: 1.93 nM
EC50 of octreotide-induced cAMP inhibition (Gi signaling, GloSensor, HEK293 cells expressing the receptor) [15]: 79 nM
EC50 of octreotide-induced cAMP inhibition (Gi signaling, GloSensor, HEK293 cells expressing the receptor) [16]: 1.17 nM
EC50 of octreotide-induced cAMP inhibition (Gi signaling, GloSensor, HEK293 cells expressing the receptor) [17]: 0.32 nM
EC50 of octreotide-induced cAMP inhibition (Gi signaling, GloSensor, HEK293 cells expressing the receptor) [18]: 190 nM
EC50 of octreotide-induced cAMP inhibition (Gi signaling, GloSensor, HEK293 cells expressing the receptor) [19]: 0.62 nM
octreotide induced cAMP inhibition (GloSensor, HEK293 cells, 1e-13 to 1e-06): EC50 of the fit WT-1 [20]: 208 pM
octreotide induced cAMP inhibition (GloSensor, HEK293 cells, 1e-13 to 1e-06): EC50 of the fit WT-2 [20]: 208 pM
octreotide induced cAMP inhibition (GloSensor, HEK293 cells, 1e-13 to 1e-06): EC50 of the fit H192T-1 [21]: 82.9 nM
octreotide induced cAMP inhibition (GloSensor, HEK293 cells, 1e-13 to 1e-06): EC50 of the fit H192T-2 [21]: 21 nM
octreotide induced cAMP inhibition (GloSensor, HEK293 cells, 1e-13 to 1e-06): EC50 of the fit WT-1 (SSTR3) [22]: 54.7 nM
octreotide induced cAMP inhibition (GloSensor, HEK293 cells, 1e-13 to 1e-06): EC50 of the fit WT-2 (SSTR3) [22]: 30.1 nM
octreotide induced cAMP inhibition (GloSensor, HEK293 cells, 1e-13 to 1e-06): EC50 of the fit T194H-1 [23]: 28.2 nM
octreotide induced cAMP inhibition (GloSensor, HEK293 cells, 1e-13 to 1e-06): EC50 of the fit T194H-2 [23]: 28.2 nM
octreotide induced cAMP inhibition (GloSensor, HEK293 cells, 1e-13 to 1e-06): EC50 of the fit V103N-1 [24]: 227 pM
octreotide induced cAMP inhibition (GloSensor, HEK293 cells, 1e-13 to 1e-06): EC50 of the fit V103N-2 [24]: 227 pM
octreotide induced cAMP inhibition (GloSensor, HEK293 cells, 1e-13 to 1e-06): EC50 of the fit N101V-1 [25]: 2.5 nM
octreotide induced cAMP inhibition (GloSensor, HEK293 cells, 1e-13 to 1e-06): EC50 of the fit N101V-2 [25]: 1.33 nM
EC50 of octreotide-induced cAMP inhibition (GloSensor, HEK293 cells expressing the receptor; Supplementary Table 5) [26]: 0.21 nM
EC50 of octreotide-induced cAMP inhibition (GloSensor, HEK293 cells expressing the receptor; Supplementary Table 5) [27]: 18.7 nM
EC50 of octreotide-induced cAMP inhibition (GloSensor, HEK293 cells expressing the receptor; Supplementary Table 5) [28]: 30.1 nM
EC50 of octreotide-induced cAMP inhibition (GloSensor, HEK293 cells expressing the receptor; Supplementary Table 5) [29]: 21 nM
EC50 of octreotide-induced cAMP inhibition (GloSensor, HEK293 cells expressing the receptor; Supplementary Table 5) [30]: 1.33 nM
EC50 of octreotide-induced cAMP inhibition (GloSensor, HEK293 cells expressing the receptor; Supplementary Table 5) [31]: 0.23 nM
Substance: octreotide (peptide)

Reference: PMC9944328 (Nature Communications, 2023)
